For 9 substances, Mean Luc activity, Luc activity and MEAN LUC ACTIVITY results are on record in patent US20240133885A1.

The target of experiment [1] is HIV1 envelop glycoprotein gp120 (HIV1). Put plainly: Luc assay, supernatant on HL2/3 cells expressing HIV1 gp120 (control 5700).
The target in experiment [2] is CD20-GA10-(vL-vH)-MYC-BBz-T2A-PAC. Kind of experiment: Luc assay, supernatant on NK92MI cells expressing the CAR (parental 510).
Experiment [3] has the same target. Put plainly: Luc assay, supernatant on Jurkat cells expressing the CAR (parental 484).
The target in experiment [4] is Amyloid. Put plainly: Luc assay, supernatant on BCBL-1 cells.
The target of experiment [5] is Amyloid. Put plainly: Luc assay, supernatant on MM1S cells.
Experiment [6] concerns the target Amyloid. Kind of experiment: Luc assay, supernatant on BC-3 cells.
For experiment [7], the target named is Amyloid. Put plainly: Luc assay, supernatant on JSC-1 cells.
For experiment [8], the target named is Amyloid. Kind of experiment: Luc assay, supernatant on BV173 cells.
Experiment [9] has as its target Amyloid. Put plainly: Luc assay, supernatant on U266 cells.
In experiment [10] the target is CD200R-huDx182-(vL-vH)-Myc-BBz-T2A-PAC. Put plainly: NLuc assay, supernatant on 293FT cells transfected with the CAR.
Experiment [11] addresses J6MO-(vL-vH)-MYC-28z-T2A-Pac. Kind of experiment: NLuc assay, supernatant on NK92MI cells expressing the CAR (no CAR 89).
Experiment [12] has as its target Lym1. Put plainly: Luc assay, supernatant on BCBL-1 cells.
Experiment [13] concerns the target Lym1. Put plainly: Luc assay, supernatant on MM1S cells.
For experiment [14], the target named is Lym1. Kind of experiment: Luc assay, supernatant on BC-3 cells.
Experiment [15] has as its target Lym1. Kind of experiment: Luc assay, supernatant on BC-1 cells.
The target in experiment [16] is Lym1. Kind of experiment: Luc assay, supernatant on JSC-1 cells.
Experiment [17] addresses Lym1. Put plainly: Luc assay, supernatant on BV173 cells.
The target of experiment [18] is Lym1. Kind of experiment: Luc assay, supernatant on U266 cells.
Experiment [19] addresses Lym1. Put plainly: Luc assay, supernatant on Raji cells.
In experiment [20] the target is FMC63-(vL-vH)-Myc-BBz-T2A-Pac. Put plainly: NLuc assay, supernatant on 293FT cells transfected with the CAR.

In [1], “CD8SP-HIV1-3BNC117-(vL-vH)-GGSG-NLuc-4xFLAG-x2STREP-8xHis-T2A-PAC (scFv)” had a Mean Luc activity of 8870.
Take “CD20-ECx2-ECD-GGSG-TurboLuc16-4xFlag-2xStreptag-8xHis-T2A-Pac (receptor)”: the Mean Luc activity in experiment [2] came out at 1420; in [3], 7610.
For “CD8SP-HIV1-VR-C01-(vL-vH)-GGSG-NLuc-4xFLAG-x2STREP-8xHis-T2A-PAC (scFv)”, the Mean Luc activity in experiment [1] came out at 9330.
“SP-Amyloid-158-(vL-vH)-GGSG-NLuc-4xFLAG-x2STREP-8xHis-T2A-PAC (scFv)”: the Luc activity in [4] is 5690; in [5], 8170; in [6], 3110; in [7], 8230; in experiment [8] it was 6220; in experiment [9] it was 3930.
In experiment [1], “CD8SP-HIV1-X5-(vL-vH)-GGSG-NLuc-4xFLAG-x2STREP-8xHis-T2A-PAC (scFv)” displayed a Mean Luc activity of 12900.
“CD200R-ECD-GGSG-NLuc-4xFlag-2xStreptag-8xHis-T2A-Pac (receptor)”: in experiment [10], the Mean Luc activity is 18700.
The substance “BCMA-ECD-GGSG-NLuc-4xFlag-2xStreptag-8xHis-T2A-Pac (from UniProt Q02223 1-54) (receptor)” came in with a Mean Luc activity in experiment [11] of 602.
On to CD8SP-Lym1(vL-vH)-GGSG-NLuc-AcV5 (scFv), for which the Luc activity amounted to 7780 in experiment [12]; 1580 in experiment [13]; 11700 in experiment [14]; 6770 in experiment [16]; 5560 in [17]; 258 in experiment [18]. For the same substance, the MEAN LUC ACTIVITY is 7780 in [12]; 1580 in experiment [13]; 11700 in [14]; 7390 in [15]; 6770 in [16]; 5560 in experiment [17]. Also, the MEAN LUC ACTIVITY in experiment [18] turned out to be 258; in [19], 580000.
“SLAMF7-CS1-ECD-GGSG-NLuc-4xFlag-2xStreptag-8xHis-T2A-Pac (receptor)” came in with a Mean Luc activity in [20] of 37800.
